Results published in patent US20180016344A1 (MacroGenics, published 2018).

Legend:
histidine tagged TRAIL = biological target: T1, histidine tagged TRAIL (UniProt P50591 114-281, limits assumed); test: ELISA, biotinylated antibody on TRAIL-His coat
T1 construct: also called TRAIL-His; TRAIL ligand; not shown: histidine tag

human DR5 = biological target: T2, human DR5 (human, UniProt O14763 56-440); test: antibody titration read as MFI (log axis) against concentration in nM; the text does not describe the assay format or how DR5 was presented (Example 2)
T2 construct: also called Death Receptor 5; TRAIL-R2
T2 sequence (O14763 other isoform, or with tags, fused parts or gaps): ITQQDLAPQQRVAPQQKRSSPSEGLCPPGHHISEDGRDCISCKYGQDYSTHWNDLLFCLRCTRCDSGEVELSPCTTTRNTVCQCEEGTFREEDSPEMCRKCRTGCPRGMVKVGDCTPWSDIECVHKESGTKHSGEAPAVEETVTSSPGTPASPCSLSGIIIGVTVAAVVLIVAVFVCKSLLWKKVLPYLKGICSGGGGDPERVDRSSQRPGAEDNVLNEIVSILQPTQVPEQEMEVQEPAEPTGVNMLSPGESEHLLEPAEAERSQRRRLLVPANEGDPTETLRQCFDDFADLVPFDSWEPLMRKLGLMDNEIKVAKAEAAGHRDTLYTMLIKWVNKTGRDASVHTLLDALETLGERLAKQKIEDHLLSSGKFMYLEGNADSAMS

[1] = biological target: T3, His-tagged cynomolgus monkey DR5 (cynomolgus monkey); test: Biacore (SPR); DR5×CD3 diabody with His-tagged cynomolgus monkey DR5
T3 construct: also called His-tagged DR5 (cynomolgus monkey)
Method: Bispecific DR5×CD3 diabodies were incubated with His-tagged DR5 and the kinetics of binding was determined via Biacore analysis.

Row | Binder | binding result (histidine tagged TRAIL) | EC50 (read off the curve) (human DR5) | Kd [1]
1 | DR5 mAb 2 (antibody, V domains shown, It is a murine antibody; also called murine anti-human antibody DR5 mAb 2; DR mAb 2) VH: KVQLQQSGAELVKPGASVKLSCKASGYTFTEYILHWVKQKSGQGLEWIGWFYPGNNNIKYNEKFKDKATLTADKSSSTVYMELSRLTSEDSAVYFCARHEQGPGYFDYWGQGTTLTVSS VL: DIVMTQSHKFMSTSVGDRVSITCKASQDVNTAVAWYQQKPGQSPKLLIYWASTRHTGVPDRFTGSGSGTDYTLTIKSVQAEDLTLYYCQQHYITPWTFGGGTKLEIK | no binding |  | 
2 | DR5 mAb 1 (antibody, V domains shown, also called anti-human DR5 monoclonal antibody DR5 mAb 1) VH: EVKFLESGGGLVQPGGSLKLSCVASGFDFSRYWMSWVRQAPGKGLEWIGEINPDSNTINYTPSLKDKFIISRDNAKNTLYLQMTKVRSEDTALYYCTRRAYYGNPAWFAYWGQGTLVTVSS VL: DIVLTQSPASLAVSLGQRATISCRASKSVSSSGYSYMHWYQQKPGQPPKVLIFLSSNLDSGVPARFSGSGSGTDFTLNIHPVEDGDAATYYCQHSRDLPPTFGGGTKLEIK | no binding | ~1 nM | 
3 | DR5 mAb 4×CD3 mAb 2 (bispecific antibody, also called diabody with the VL and VH Domains of conatumumab) chain 1: EIVLTQSPGTLSLSPGERATLSCRASQGISRSYLAWYQQKPGQAPSLLIYGASSRATGIPDRFSGSGSGTDFTLTISRLEPEDFAVYYCQQFGSSPWTFGQGTKVEIKGGGSGGGGEVQLVESGGGLVQPGGSLRLSCAASGFTFSTYAMNWVRQAPGKGLEWVGRIRSKYNNYATYYADSVKGRFTISRDDSKNSLYLQMNSLKTEDTAVYYCVRHGNFGNSYVSWFAYWGQGTLVTVSSASTKGEVAACEKEVAALEKEVAALEKEVAALEK chain 2: QAVVTQEPSLTVSPGGTVTLTCRSSTGAVTTSNYANWVQQKPGQAPRGLIGGTNKRAPWTPARFSGSLLGGKAALTITGAQAEDEADYYCALWYSNLWVFGGGTKLTVLGGGGSGGGGQVQLQESGPGLVKPSQTLSLTCTVSGGSISSGDYFWSWIRQLPGKGLEWIGHIHNSGTTYYNPSLKSRVTISVDTSKKQFSLRLSSVTAADTAVYYCARDRGGDYYYGMDVWGQGTTVTVSSASTKGKVAACKEKVAALKEKVAALKEKVAALKE |  |  | 16.4 nM
4 | DR5 mAb 3×CD3 mAb 2 (bispecific antibody, also called diabody with the VL and VH Domains of drozitumab) chain 1: SELTQDPAVSVALGQTVRITCSGDSLRSYYASWYQQKPGQAPVLVIYGANNRPSGIPDRFSGSSSGNTASLTITGAQAEDEADYYCNSADSSGNHVVFGGGTKLTVLGGGGSGGGGEVQLVESGGGLVQPGGSLRLSCAASGFTFSTYAMNWVRQAPGKGLEWVGRIRSKYNNYATYYADSVKGRFTISRDDSKNSLYLQMNSLKTEDTAVYYCVRHGNFGNSYVSWFAYWGQGTLVTVSSASTKGEVAACEKEVAALEKEVAALEKEVAALEK chain 2: QAVVTQEPSLTVSPGGTVTLTCRSSTGAVTTSNYANWVQQKPGQAPRGLIGGTNKRAPWTPARFSGSLLGGKAALTITGAQAEDEADYYCALWYSNLWVFGGGTKLTVLGGGGSGGGGEVQLVQSGGGVERPGGSLRLSCAASGFTFDDYAMSWVRQAPGKGLEWVSGINWQGGSTGYADSVKGRVTISRDNAKNSLYLQMNSLRAEDTAVYYCAKILGAGRGWYFDYWGKGTTVTVSSASTKGKVAACKEKVAALKEKVAALKEKVAALKE |  |  | 13.3 nM
5 | DR5 mAb 1×CD3 mAb 2 (bispecific antibody, also called bispecific DR5×CD3 diabody) chain 1: DIVLTQSPASLAVSLGQRATISCRASKSVSSSGYSYMHWYQQKPGQPPKVLIFLSSNLDSGVPARFSGSGSGTDFTLNIHPVEDGDAATYYCQHSRDLPPTFGGGTKLEIKGGGSGGGGEVQLVESGGGLVQPGGSLRLSCAASGFTFSTYAMNWVRQAPGKGLEWVGRIRSKYNNYATYYADSVKGRFTISRDDSKNSLYLQMNSLKTEDTAVYYCVRHGNFGNSYVSWFAYWGQGTLVTVSSASTKGEVAACEKEVAALEKEVAALEKEVAALEK chain 2: QAVVTQEPSLTVSPGGTVTLTCRSSTGAVTTSNYANWVQQKPGQAPRGLIGGTNKRAPWTPARFSGSLLGGKAALTITGAQAEDEADYYCALWYSNLWVFGGGTKLTVLGGGGSGGGGEVKFLESGGGLVQPGGSLKLSCVASGFDFSRYWMSWVRQAPGKGLEWIGEINPDSNTINYTPSLKDKFIISRDNAKNTLYLQMTKVRSEDTALYYCTRRAYYGNPAWFAYWGQGTLVTVSSASTKGKVAACKEKVAALKEKVAALKEKVAALKE |  |  | 32.5 nM
6 | DR5 mAb 2×CD3 mAb 2 (bispecific antibody, also called DR5 mAb 2×CD3 mAb 2 diabody) chain 1: DIVMTQSHKFMSTSVGDRVSITCKASQDVNTAVAWYQQKPGQSPKLLIYWASTRHTGVPDRFTGSGSGTDYTLTIKSVQAEDLTLYYCQQHYITPWTFGGGTKLEIKGGGSGGGGEVQLVESGGGLVQPGGSLRLSCAASGFTFSTYAMNWVRQAPGKGLEWVGRIRSKYNNYATYYADSVKGRFTISRDDSKNSLYLQMNSLKTEDTAVYYCVRHGNFGNSYVSWFAYWGQGTLVTVSSASTKGEVAACEKEVAALEKEVAALEKEVAALEK chain 2: QAVVTQEPSLTVSPGGTVTLTCRSSTGAVTTSNYANWVQQKPGQAPRGLIGGTNKRAPWTPARFSGSLLGGKAALTITGAQAEDEADYYCALWYSNLWVFGGGTKLTVLGGGGSGGGGKVQLQQSGAELVKPGASVKLSCKASGYTFTEYILHWVKQKSGQGLEWIGWFYPGNNNIKYNEKFKDKATLTADKSSSTVYMELSRLTSEDSAVYFCARHEQGPGYFDYWGQGTTLTVSSASTKGKVAACKEKVAALKEKVAALKEKVAALKE |  |  | 0.42 nM
